In paper PMC9098913, “In vitro reconstitution of Escherichia coli divisome activation” (Nature Communications, 2022):

Assay: Diffusion coefficient (Dcoeff) of FtsA from FRAP
Conditions: for Diffusion Coefficient, mean: Fig. 3j
Excerpt: We could also use the data from these bleaching experiments to quantify the membrane-binding kinetics and diffusion of membrane-bound proteins by analysing the change of the fluorescence profile during recovery.
Equimolar concentrations of Cy3- and Cy5-labelled FtsA, supplemented with 20% unlabelled FtsA were used to study FRET and FRAP. Five pre-bleach frames were acquired, followed by acceptor photobleaching of a rectangular ROI with 40% 641 nm laser power and a dwell size of 1 µs/pixel, 75% overlapping lines. The recovery of the signal or the increase in donor intensity were measured with either two frames or one frame per second.
Bleaching the acceptor dye leads to an increase in the donor intensity, which can be used to quantify the Foerster Resonance energy transfer (FRET)[48]. FRET efficiency was quantified with E%=Ipost/Ipost+Ipre⋅100 , where Ipost is the intensity of the […] and Ipre is the […]. […] To extract the contribution of both processes, we adjusted a routine recently published by Gerganova et al.[33]. In short, the code provides the contribution of both modes of recovery by analysing the shape of the fluorescence recovery profile. […] Contribution of diffusion leads to a change of the slope of the outer borders of the bleached region (S4h right). Thus, by measuring the change of the slope of the border recovery, diffusion and simple on/off binding can be distinguished. We developed “FRAPdiff”, a graphical user interface, which uses the original fit routine by David Rutkowski. It can be used directly on.tiff movies with annotated bleach regions as ImageJ ROIs. In addition, we added optional bleach correction, user selectable projection axis (x or y), and optional mirroring of the recovery profiles, if bleaching was not symmetric. The original fit routine for estimating the recovery and diffusion dynamics can be found at https://github.com/davidmrutkowski/1DReflectingDiffusion. FRAPdiff is available at 10.5281/zenodo.6400639[49] under the GPLv3 open-source license.

B1: FtsA R286W (protein)
chain: MIKATDRKLVVGLEIGTAKVAALVGEVLPDGMVNIIGVGSCPSRGMDKGGVNDLESVVKCVQRAIDQAELMADCQISSVYLALSGKHISCQNEIGMVPISEEEVTQEDVENVVHTAKSVRVRDEHRVLHVIPQEYAIDYQEGIKNPVGLSGVRMQAKVHLITCHNDMAKNIVKAVERCGLKVDQLIFAGLASSYSVLTEDERELGVCVVDIGGGTMDIAVYTGGALRHTKVIPYAGNVVTSDIAYAFGTPPSDAEAIKVRHGCALGSIVGKDESVEVPSVGGRPPWSLQRQTLAEVIEPRYTELLNLVNEEILQLQEKLRQQGVKHHLAAGIVLTGGAAQIEGLAACAQRVFHTQVRIGAPLNITGLTDYAQEPYYSTAVGLLHYGKESHLNGEAEVEKRVTASVGSWIKRLNSWLRKEF
modifications: Cy3 or Cy5 at the N-terminus in the labelled form (labelled CLEPTGG peptide conjugated to the 5xGly tag by sortagging); unlabelled protein also used; left off: TwinStrep-SUMO, N-terminal, cleaved | 5x
For B1, the “Diffusion Coefficient, mean” value (0.1 µM FtsA + N) was 7.25E-02 µm2/s, the “Diffusion Coefficient, mean” value (0.1 µM FtsA + Z&N) was 2.31E-02 µm2/s and the “Diffusion Coefficient, mean” value (0.1 µM FtsA + Z) was 5.72E-03 µm2/s. For the same molecule, the “Diffusion Coefficient” value (0.1µM FtsA alone, Mean, n=18 (WT), 6 (R286W)) was 0.0520, the “Diffusion Coefficient, mean” value (0.1 µM FtsA alone) was 5.20E-02 µm2/s and the “Diffusion Coefficient” value (0.1µM FtsA alone, replicate Exp.1) was 8.43E-02. For the same molecule, the “Diffusion Coefficient” value (0.1µM FtsA alone, replicate Exp.2) was 1.09E-02, the “Diffusion Coefficient” value (0.1µM FtsA alone, replicate Exp.3) was 6.73E-03 and the “Diffusion Coefficient” value (0.1µM FtsA alone, replicate Exp.4) was 8.58E-02. For the same molecule, the “Diffusion Coefficient” value (0.1µM FtsA alone, replicate Exp.5) was 8.30E-02, the “Diffusion Coefficient” value (0.1µM FtsA alone, replicate Exp.6) was 4.11E-02 and the “Diffusion Coefficient” value (0.1µM, + FtsN&Z, Mean, n=5 (WT), 3 (R286W)) was 0.0231. For the same molecule, the “Diffusion Coefficient” value (0.1µM, + FtsN&Z, replicate Exp.1) was 1.54E-02, the “Diffusion Coefficient” value (0.1µM, + FtsN&Z, replicate Exp.2) was 3.28E-02 and the “Diffusion Coefficient” value (0.1µM, + FtsN&Z, replicate Exp.3) was 2.10E-02. For the same molecule, the “Diffusion Coefficient” value (0.1µM, + FtsN, Mean, n=5 (WT), 3 (R286W)) was 0.0725, the “Diffusion Coefficient” value (0.1µM, + FtsN, replicate Exp.1) was 2.08E-01 and the “Diffusion Coefficient” value (0.1µM, + FtsN, replicate Exp.2) was 5.52E-03. The “Diffusion Coefficient” value (0.1µM, + FtsN, replicate Exp.3) was 4.11E-03, the “Diffusion Coefficient” value (0.1µM, + FtsZ, Mean, n=8 (WT), 4 (R286W)) was 0.0057 and the “Diffusion Coefficient” value (0.1µM, + FtsZ, replicate Exp.1) was 3.86E-04. The “Diffusion Coefficient” value (0.1µM, + FtsZ, replicate Exp.2) was 2.70E-04, the “Diffusion Coefficient” value (0.1µM, + FtsZ, replicate Exp.3) was 1.57E-02 and the “Diffusion Coefficient” value (0.1µM, + FtsZ, replicate Exp.4) was 6.48E-03. For the same molecule, the “Diffusion Coefficient, mean” value (0.2 µM FtsA + N) was 7.49E-02 µm2/s, the “Diffusion Coefficient, mean” value (0.2 µM FtsA + Z&N) was 3.50E-02 µm2/s and the “Diffusion Coefficient, mean” value (0.2 µM FtsA + Z) was 1.81E-02 µm2/s. The “Diffusion Coefficient” value (0.2µM FtsA alone, Mean, n=24 (WT), 6 (R286W)) was 0.1536, the “Diffusion Coefficient, mean” value (0.2 µM FtsA alone) was 1.54E-01 µm2/s and the “Diffusion Coefficient” value (0.2µM FtsA alone, replicate Exp.1) was 5.97E-01. For the same molecule, the “Diffusion Coefficient” value (0.2µM FtsA alone, replicate Exp.2) was 7.31E-02, the “Diffusion Coefficient” value (0.2µM FtsA alone, replicate Exp.3) was 7.49E-02 and the “Diffusion Coefficient” value (0.2µM FtsA alone, replicate Exp.4) was 3.26E-02. For the same molecule, the “Diffusion Coefficient” value (0.2µM FtsA alone, replicate Exp.5) was 1.37E-01, the “Diffusion Coefficient” value (0.2µM FtsA alone, replicate Exp.6) was 6.07E-03 and the “Diffusion Coefficient” value (0.2µM, + FtsN&Z, Mean, n=8 (WT), 6 (R286W)) was 0.0350. The “Diffusion Coefficient” value (0.2µM, + FtsN&Z, replicate Exp.1) was 5.92E-02, the “Diffusion Coefficient” value (0.2µM, + FtsN&Z, replicate Exp.2) was 5.62E-02 and the “Diffusion Coefficient” value (0.2µM, + FtsN&Z, replicate Exp.3) was 3.73E-02. The “Diffusion Coefficient” value (0.2µM, + FtsN&Z, replicate Exp.4) was 2.25E-02, the “Diffusion Coefficient” value (0.2µM, + FtsN&Z, replicate Exp.5) was 3.21E-02 and the “Diffusion Coefficient” value (0.2µM, + FtsN&Z, replicate Exp.6) was 2.82E-03. The “Diffusion Coefficient” value (0.2µM, + FtsN, Mean, n=7 (WT), 4 (R286W)) was 0.0749, the “Diffusion Coefficient” value (0.2µM, + FtsN, replicate Exp.1) was 3.41E-02 and the “Diffusion Coefficient” value (0.2µM, + FtsN, replicate Exp.2) was 6.37E-02. The “Diffusion Coefficient” value (0.2µM, + FtsN, replicate Exp.3) was 1.01E-01, the “Diffusion Coefficient” value (0.2µM, + FtsN, replicate Exp.4) was 1.01E-01 and the “Diffusion Coefficient” value (0.2µM, + FtsZ, Mean, n=7 (WT), 6 (R286W)) was 0.0181. The “Diffusion Coefficient” value (0.2µM, + FtsZ, replicate Exp.1) was 2.61E-02, the “Diffusion Coefficient” value (0.2µM, + FtsZ, replicate Exp.2) was 3.49E-02 and the “Diffusion Coefficient” value (0.2µM, + FtsZ, replicate Exp.3) was 2.40E-02. For the same molecule, the “Diffusion Coefficient” value (0.2µM, + FtsZ, replicate Exp.4) was 1.48E-02, the “Diffusion Coefficient” value (0.2µM, + FtsZ, replicate Exp.5) was 2.86E-04 and the “Diffusion Coefficient” value (0.2µM, + FtsZ, replicate Exp.6) was 8.41E-03. For the same molecule, the “Diffusion Coefficient, mean” value (0.4 µM FtsA + N) was 4.57E-02 µm2/s, the “Diffusion Coefficient, mean” value (0.4 µM FtsA + Z&N) was 7.88E-03 µm2/s and the “Diffusion Coefficient, mean” value (0.4 µM FtsA + Z) was 3.05E-02 µm2/s. For the same molecule, the “Diffusion Coefficient” value (0.4µM FtsA alone, Mean, n=18 (WT), 9 (R286W)) was 0.1352, the “Diffusion Coefficient, mean” value (0.4 µM FtsA alone) was 1.35E-01 µm2/s and the “Diffusion Coefficient” value (0.4µM FtsA alone, replicate Exp.1) was 1.81E-01. For the same molecule, the “Diffusion Coefficient” value (0.4µM FtsA alone, replicate Exp.2) was 2.05E-02, the “Diffusion Coefficient” value (0.4µM FtsA alone, replicate Exp.3) was 2.71E-02 and the “Diffusion Coefficient” value (0.4µM FtsA alone, replicate Exp.4) was 1.05E-01. The “Diffusion Coefficient” value (0.4µM FtsA alone, replicate Exp.5) was 1.05E-01.
